# Source: PMC9242648, “Hypertrophic cardiomyopathy mutations in the pliant and light chain-binding regions of the lever arm of human β-cardiac myosin have divergent effects on myosin function” (eLife, 2022)
# T1: human β-cardiac myosin 2-hep heavy chain, wild type (human | )
# T1 chain: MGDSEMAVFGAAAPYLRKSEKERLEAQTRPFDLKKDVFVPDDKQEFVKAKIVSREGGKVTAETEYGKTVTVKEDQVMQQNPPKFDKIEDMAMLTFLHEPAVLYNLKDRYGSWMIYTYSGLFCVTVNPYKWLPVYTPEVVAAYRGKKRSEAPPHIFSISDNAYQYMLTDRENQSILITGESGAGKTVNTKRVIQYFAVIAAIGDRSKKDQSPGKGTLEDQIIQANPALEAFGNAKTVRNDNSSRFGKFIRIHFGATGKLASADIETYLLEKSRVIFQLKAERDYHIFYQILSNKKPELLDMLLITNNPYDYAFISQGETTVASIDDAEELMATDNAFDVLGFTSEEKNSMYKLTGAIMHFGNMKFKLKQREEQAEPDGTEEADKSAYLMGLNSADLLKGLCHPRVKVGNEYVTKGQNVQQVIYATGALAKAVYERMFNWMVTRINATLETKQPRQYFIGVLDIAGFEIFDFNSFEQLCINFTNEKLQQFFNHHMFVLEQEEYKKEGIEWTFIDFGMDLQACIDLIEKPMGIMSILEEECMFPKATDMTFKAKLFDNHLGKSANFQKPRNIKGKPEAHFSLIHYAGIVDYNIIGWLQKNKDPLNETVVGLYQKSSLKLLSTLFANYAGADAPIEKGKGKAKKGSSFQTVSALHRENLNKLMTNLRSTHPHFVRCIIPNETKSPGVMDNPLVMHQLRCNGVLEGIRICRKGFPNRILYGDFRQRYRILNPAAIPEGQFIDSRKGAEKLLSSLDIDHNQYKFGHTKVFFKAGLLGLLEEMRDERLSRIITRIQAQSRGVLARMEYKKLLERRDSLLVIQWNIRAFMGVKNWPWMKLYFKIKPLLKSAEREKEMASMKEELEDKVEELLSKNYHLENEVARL
# B1: human essential light chain (MYL3) (natural protein)
# chain: not shown
# notes: human essential light chain, MYL3; N-terminal FLAG tag followed by a TEV protease site; TEV protease cleaved the ELC-myosin complex off the anti-FLAG resin; also called ELC; not shown: FLAG, N-terminal, cleaved
# B2: human regulatory light chain (MYL2) (natural protein, UniProt P10916 1-166, looked up)
# chain: MAPKKAKKRAGGANSNVFSMFEQTQIQEFKEAFTIMDQNRDGFIDKNDLRDTFAALGRVNVKNEEIDEMIKEAPGPINFTVFLTMFGEKLKGADPEETILNAFKVFDPEGKGVLKADYVREMLTTQAERFSKEEVDQMFAAFPPDVTGNLDYKNLVHIITHGEEKD
# notes: human regulatory light chain, MYL2; N-terminal His-TEV tag added; also called RLC; source: E. coli, purified (as in Nag et al., 2017)
# Legend:
# [1] = biological target: T1, human β-cardiac myosin 2-hep heavy …; test: light chain loading gel assay (Coomassie SDS-PAGE densitometry of the co-purified complex); ELC co-expressed with the 2-hep heavy chain in C2C12 cells and purified through the FLAG tag of the ELC; buffer exchanged 5x in a 50 or 100 kDa filter to remove unbound light chains; dilution series 10-1 pmol per lane, 700 nm scan, slope of light chain over slope of heavy chain; details: partners not purified
# [2] = biological target: T1, human β-cardiac myosin 2-hep heavy …; test: light chain loading gel assay (Coomassie SDS-PAGE densitometry of the co-purified complex); human RLC purified from E. coli added to myosin held on anti-FLAG resin after depletion of native mouse RLC (>2.5 hr, 4°C); buffer exchanged 5x in a 50 or 100 kDa filter to remove unbound light chains; dilution series 10-1 pmol per lane, 700 nm scan, slope of light chain over slope of heavy chain; details: both partners purified
binder,measurement,setting,value
B1,"ELC/HC ratio (Coomassie band density, light chain over heavy chain)",[1],0.19
B2,"RLC/HC ratio (Coomassie band density, light chain over heavy chain)",[2],0.11
